{"source": "paper PMC7587574", "origin": "cited, not measured here", "key": {"[1]": {"molecular_target": "κ-opioid receptor (Homo sapiens) (UniProt P41145)", "sequence (P41145 whole entry)": "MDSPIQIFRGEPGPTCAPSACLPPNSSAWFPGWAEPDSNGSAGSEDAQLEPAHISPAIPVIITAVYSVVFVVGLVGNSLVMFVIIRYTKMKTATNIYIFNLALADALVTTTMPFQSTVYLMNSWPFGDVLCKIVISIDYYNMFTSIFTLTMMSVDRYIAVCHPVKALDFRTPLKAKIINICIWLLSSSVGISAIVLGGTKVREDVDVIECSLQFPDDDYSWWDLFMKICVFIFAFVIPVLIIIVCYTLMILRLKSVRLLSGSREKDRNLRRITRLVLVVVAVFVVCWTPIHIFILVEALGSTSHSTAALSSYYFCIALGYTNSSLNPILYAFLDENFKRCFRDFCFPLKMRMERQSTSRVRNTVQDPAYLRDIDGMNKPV"}, "[2]": {"molecular_target": "PACAP receptor (PAC1R) (Homo sapiens) (UniProt P41586)", "sequence (P41586 21-468)": "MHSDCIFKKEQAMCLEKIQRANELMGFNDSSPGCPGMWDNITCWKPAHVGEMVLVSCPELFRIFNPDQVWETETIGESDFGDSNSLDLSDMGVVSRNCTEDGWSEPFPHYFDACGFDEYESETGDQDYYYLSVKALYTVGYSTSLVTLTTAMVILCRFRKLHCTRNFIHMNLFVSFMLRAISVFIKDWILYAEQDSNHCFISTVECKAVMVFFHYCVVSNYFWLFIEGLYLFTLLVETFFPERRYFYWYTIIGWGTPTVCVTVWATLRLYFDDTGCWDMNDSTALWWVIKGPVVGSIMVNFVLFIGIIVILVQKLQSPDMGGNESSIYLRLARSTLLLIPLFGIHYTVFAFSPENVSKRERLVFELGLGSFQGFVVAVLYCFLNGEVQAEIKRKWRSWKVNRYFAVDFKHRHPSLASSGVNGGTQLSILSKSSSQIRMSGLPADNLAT"}, "[3]": {"molecular_target": "PACAP receptor (PAC1R) (Homo sapiens) (UniProt P41586)", "remark": "listed apart in the source"}}, "note": "Where two headings read alike, the source gives them in different places."}
{"substance": "dynorphin 13-mer fragment (from UniProt P01213)", "values": [{"measurement": "Kd", "setting": "[1]", "result": 200, "unit": "nM"}]}
{"substance": "PACAP (from UniProt P18509)", "values": [{"measurement": "Kd", "setting": "[2]", "result": 3, "unit": "nM"}]}
{"substance": "PACAP (truncated) (from UniProt P18509)", "values": [{"measurement": "Kd", "setting": "[3]", "result": 18000, "unit": "nM"}]}
